Test results from patent publication US11491212.

B1: FIXa-D203N/F205T/R318Y (mature FIX numbering) (protein)
chain 1: not shown
chain 2: not shown
B2: FIXa-D85N/K228N/R318Y/R338E/R403E/E410N (protein)
chain 1: not shown
chain 2: not shown
B3: FIXa-D203N/F205T/R338E/R403E (mature FIX numbering) (protein)
chain 1: not shown
chain 2: not shown
B4: FIXa-Y155F/I251S/R318Y/R338E/R403E/E410N (protein)
chain 1: not shown
chain 2: not shown
B5: FIXa-D203N/F205T/R338E (mature FIX numbering) (protein)
chain 1: not shown
chain 2: not shown
B6: FIXa-K247N/N249S/R318Y/R338E/E410N (protein)
chain 1: not shown
chain 2: not shown
B7: FIXa-K228N/R318Y/R338E/R403E/E410N (protein)
chain 1: not shown
chain 2: not shown
B8: FIXa-I251S/R318Y/R338E/R403E/E410N (protein)
chain 1: not shown
chain 2: not shown
B9: FIXa-D203N/F205T/R338A (mature FIX numbering) (protein)
chain 1: not shown
chain 2: not shown
B10: FIXa-D104N/K106S/I251S/R318Y/R338E/E410N (protein)
chain 1: not shown
chain 2: not shown
B11: FIXa-K247N/N249S/R318Y/R338E/R403E/E410N (protein)
chain 1: not shown
chain 2: not shown
B12: FIXa-D104N/K106S/K247N/N249S/R318Y/R338E/R403E/E410N (protein)
chain 1: not shown
chain 2: not shown
B13: FIXa-D104N/K106S/I251S/R318Y/R338E/R403E/E410N (protein)
chain 1: not shown
chain 2: not shown

Biological target: Factor X (FX), P00742
Sequence (P00742 whole entry, looked up): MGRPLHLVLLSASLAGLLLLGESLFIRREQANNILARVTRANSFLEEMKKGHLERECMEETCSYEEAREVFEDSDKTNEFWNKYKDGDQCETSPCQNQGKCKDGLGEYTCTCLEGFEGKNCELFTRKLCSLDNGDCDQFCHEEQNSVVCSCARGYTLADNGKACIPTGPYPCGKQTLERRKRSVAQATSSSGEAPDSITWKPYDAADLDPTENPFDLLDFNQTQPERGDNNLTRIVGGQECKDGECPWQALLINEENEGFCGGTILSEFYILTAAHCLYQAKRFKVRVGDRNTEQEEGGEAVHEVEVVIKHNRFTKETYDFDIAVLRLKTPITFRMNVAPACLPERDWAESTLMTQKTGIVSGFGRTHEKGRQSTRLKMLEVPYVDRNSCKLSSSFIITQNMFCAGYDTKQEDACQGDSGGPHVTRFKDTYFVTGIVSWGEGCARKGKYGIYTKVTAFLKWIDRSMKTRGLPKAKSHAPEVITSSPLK

Row | Protein | % of WT kcat/KM [%] | % of WT kcat/KM (against Catalyst Biosciences WT FIXa) [%] | kcat/KM for activation of FX by FIXa in the Xase complex (FVIIIa, PC/PS vesicles, Ca2+), fluorogenic Spectrafluor FXa read-out [M⁻¹ s⁻¹]
1 | B1 | 44 | – | –
2 | B2 | – | 336 | 1.6e+08
3 | B3 | 41 | – | –
4 | B4 | – | 363 | 1.7e+08
5 | B5 | 228 | – | –
6 | B6 | – | 501 | 2.3e+08
7 | B7 | – | 339 | 1.6e+08
8 | B8 | – | 334 | 1.5e+08
9 | B9 | 135 | – | –
10 | B10 | – | 291 | 1.3e+08
11 | B11 | – | 331 | 1.5e+08
12 | B12 | – | 192 | 8.8e+07
13 | B13 | – | 263 | 1.2e+08
